Data as given in paper PMC3859847 (Biochemistry, 2013).

T1: rat liver glucokinase regulatory protein (rat, UniProt Q07071 1-627)
T1 sequence: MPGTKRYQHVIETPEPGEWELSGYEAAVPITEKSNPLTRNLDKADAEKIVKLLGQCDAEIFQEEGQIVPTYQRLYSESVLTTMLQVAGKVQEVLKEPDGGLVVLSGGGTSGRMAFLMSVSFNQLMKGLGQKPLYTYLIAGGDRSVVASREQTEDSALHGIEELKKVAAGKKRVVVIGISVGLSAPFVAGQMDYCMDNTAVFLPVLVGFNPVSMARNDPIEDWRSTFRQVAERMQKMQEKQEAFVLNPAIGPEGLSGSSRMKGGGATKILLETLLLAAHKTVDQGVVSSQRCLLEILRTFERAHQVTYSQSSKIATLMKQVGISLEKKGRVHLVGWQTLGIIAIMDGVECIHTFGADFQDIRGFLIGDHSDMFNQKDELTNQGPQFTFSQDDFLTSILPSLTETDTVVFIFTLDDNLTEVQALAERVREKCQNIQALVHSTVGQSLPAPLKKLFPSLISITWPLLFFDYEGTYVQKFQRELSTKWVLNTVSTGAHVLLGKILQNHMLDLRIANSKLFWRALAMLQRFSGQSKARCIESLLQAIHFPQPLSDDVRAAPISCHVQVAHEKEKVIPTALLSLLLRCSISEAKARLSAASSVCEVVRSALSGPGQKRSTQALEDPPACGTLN

B1: human pancreatic glucokinase (enzyme)
chain: DDRARMEAAKKEKVEQILAEFQLQEEDLKKVMRRMQKEMDRGLRLETHEEASVKMLPTYVRSTPEGSEVGDFLSLDLGGTNFRVMLVKVGEGEEGQWSVKTKHQMYSIPEDAMTGTAEMLFDYISECISDFLDKHQMKHKKLPLGFTFSFPVRHEDIDKGILLNWTKGFKASGAEGNNVVGLLRDAIKRRGDFEMDVVAMVNDTVATMISCYYEDHQCEVGMIVGTGCNACYMEEMQNVELVEGDEGRMCVNTEWGAFGDSGELDEFLLEYDRLVDESSANPGQQLYEKLIGGKYMGELVRLVLLRLVDENLLFHGEASEQLRTRGAFETRFVSQVESDTGDRKQIYNILSTLGLRPSTTDCDIVRRACESVSTRAAHMCSAGLAGVINRMRESRSEDVMRITVGVDGSVYKLHPSFKERFHASVRRLTPSCEITFIESEEGSGRGAALVSAVACKKACMLGQ

How the values were obtained:
[1] = biological target: Glucokinase (Homo sapiens) (UniProt P35557); settings: cited from earlier work
[2] = biological target: T1, rat liver glucokinase regulatory protein; experiment: crystal structure

Molecule | Kd [1] [nM] | binding result [2]
GKRP (from UniProt Q07071) | 1000 | 
B1 |  | binds
